# Substitutions are numbered along the chain they refer to.
# B1: 442S1: modified anti-ErbB3 antibody from lead antibody 442P (CDR mutagenesis) (antibody, V domains shown)
# VH: EVQLLESGGGLVQPGGSLRLSCAASGFTFSDYDMSWVRQAPGKGLEWVSTIDLDSGSIYYADSVQGRFTISRDNSKNTLYLQMNSLRAEDTAVYYCAKDLHMGPEGPFDYWGQGTLVTVSS
# VL: QSVLTQPPSASGTPGQRVTISCSGSSSNIGSNSVSWYQQLPGTAPKLLIYSDNHRPSGVPDRFSGSKSGTSASLAISGLRSEDEADYYCQGWDTSLSGHVFGGGTKLTVLG
# modifications: Heavy chain variable region of antibody 442S1; Light chain variable region of antibody 442S1
# B2: 472S2: modified anti-ErbB3 antibody from lead antibody 472P (CDR mutagenesis) (antibody, V domains shown)
# VH: EVQLLESGGGLVQPGGSLRLSCAASGFTFSWYDLAWVRQAPGKGLEWVSGISYDGGNTYYADSVKGRFTISRDNSKNTLYLQMNSLRAEDTAVYYCARDPSWCLQDLCYYADGMDVWGQGTLVTVSS
# VL: B1 VL with S51A, N53S, H54N, Q90G, G91S, T94Y, H99Y
# modifications: Heavy chain variable region of antibody 472S2; Light chain variable region of antibody 472S2
# B3: 451M3: modified anti-ErbB3 antibody from lead antibody 451P (CDR mutagenesis) (antibody, V domains shown)
# VH: EVQLLESGGGLVQPGGSLRLSCAASGFTFSHYDMSWVRQAPGKGLEWVSAIYYDSGSIYYADSAKGRFTISRDNSKNTLYLQMNSLRAEDTAVYYCAKDRLFASDSTFDYWGQGTLVTVSS
# VL: B1 VL with S26P, S31N, S35T, S51Y, N53S, Q90G, G91S, T94A, S97N, H99Y
# modifications: Heavy chain variable region of antibody 451M3; Light chain variable region of antibody 451M3
# B4: 451M2: modified anti-ErbB3 antibody from lead antibody 451P (CDR mutagenesis) (antibody, V domains shown)
# VH: B3 VH with H31D
# VL: B1 VL with S26P, S31N, S35T, S51Y, N53S, Q90G, G91S, T94A, S97N, H99Y
# modifications: Heavy chain variable region of antibody 451M2; Light chain variable region of antibody 451M2
# B5: 451M1: modified anti-ErbB3 antibody from lead antibody 451P (CDR mutagenesis) (antibody, V domains shown)
# VH: B3 VH with H31D, A103M
# VL: B1 VL with S26P, S31N, S35T, S51Y, N53S, Q90G, G91S, T94A, S97N, H99Y
# modifications: Heavy chain variable region of antibody 451M1; Light chain variable region of antibody 451M1
# B6: 451M7: modified anti-ErbB3 antibody from lead antibody 451P (CDR mutagenesis) (antibody, V domains shown)
# VH: B3 VH with H31Y, A103E
# VL: B1 VL with S26P, S31N, S35T, S51Y, N53S, Q90G, G91S, T94A, S97N, H99Y
# modifications: Heavy chain variable region of antibody 451M7; Light chain variable region of antibody 451M7
# B7: 472S4: modified anti-ErbB3 antibody from lead antibody 472P (CDR mutagenesis) (antibody, V domains shown)
# VH: B2 VH with L34I
# VL: B1 VL with S51A, N53S, H54N, Q90G, G91S, T94Y, H99Y
# modifications: Heavy chain variable region of antibody 472S4; Light chain variable region of antibody 472S4
# B8: 451M5: modified anti-ErbB3 antibody from lead antibody 451P (CDR mutagenesis) (antibody, V domains shown)
# VH: B3 VH with H31D, A103E
# VL: B1 VL with S26P, S31N, S35T, S51Y, N53S, Q90G, G91S, T94A, S97N, H99Y
# modifications: Heavy chain variable region of antibody 451M5; Light chain variable region of antibody 451M5
# B9: 451M4: modified anti-ErbB3 antibody from lead antibody 451P (CDR mutagenesis) (antibody, V domains shown)
# VH: B3 VH with H31Y
# VL: B1 VL with S26P, S31N, S35T, S51Y, N53S, Q90G, G91S, T94A, S97N, H99Y
# modifications: Heavy chain variable region of antibody 451M4; Light chain variable region of antibody 451M4
# B10: 442S6: modified anti-ErbB3 antibody from lead antibody 442P (CDR mutagenesis) (antibody, V domains shown)
# VH: B1 VH with T50S, D52Y, L53P, I58T, Y59D, L100R, G103W
# VL: B1 VL with V34G, S51A, H54W, Q90A, G91A, T94S, H99Y
# modifications: Heavy chain variable region of antibody 442S6; Light chain variable region of antibody 442S6
# B11: 451M6: modified anti-ErbB3 antibody from lead antibody 451P (CDR mutagenesis) (antibody, V domains shown)
# VH: B3 VH with A103E
# VL: B1 VL with S26P, S31N, S35T, S51Y, N53S, Q90G, G91S, T94A, S97N, H99Y
# modifications: Heavy chain variable region of antibody 451M6; Light chain variable region of antibody 451M6
# B12: 472S3: modified anti-ErbB3 antibody from lead antibody 472P (CDR mutagenesis) (antibody, V domains shown)
# VH: B2 VH with L34M, A35S
# VL: B1 VL with S51A, N53S, H54N, Q90G, G91S, T94Y, H99Y
# modifications: Heavy chain variable region of antibody 472S3; Light chain variable region of antibody 472S3
# B13: 472M1: modified anti-ErbB3 antibody from lead antibody 472P (CDR mutagenesis) (antibody, V domains shown)
# VH: B2 VH with A35S
# VL: B1 VL with S51A, N53S, H54N, Q90G, G91S, T94Y, H99Y
# modifications: Heavy chain variable region of antibody 472M1; Light chain variable region of antibody 472M1
# Target: T1, recombinant human ErbB3 protein (Homo sapiens, UniProt P21860)
# T1 construct: purchased R&D systems
# Experiment: Binding affinity of anti-ErbB3 antibody to human ErbB3 protein (Octet QK384)
# Conditions: immobilized human ErbB3; binding phase about 900 seconds
# Method: In particular, the binding affinities of the anti-ErbB3 antibodies to the recombinant human ErbB3 protein (R&D systems) and the antigen-antibody interactive dynamics were measured using an Octet® QK384 system (Pall Life Sciences). After activation of carboxyl groups in 20 mM of 1-ethyl-3-(3-dimethylaminopropyl)carbodiimide hydrochloride (EDC) and 40 mM of N-hydroxysulfosuccinimide (sulfo-NHS) solution on an AR2G sensor (ForteBio), 10 μg/mL of human ErbB3 protein solution diluted with 10 mM of sodium acetate (pH 4.0) (ForteBio) was added to immobilize human ErbB3 protein onto the AR2G sensor. The AR2G sensor to which the human ErbB3 protein was immobilized was treated with 1 M of ethanolamine (ForteBio) to inactivate the remaining unreacted carboxyl groups.
row,Molecule,ka (association constant)
1,B1,522000 M⁻¹ s⁻¹
2,B2,1.07e+06 M⁻¹ s⁻¹
3,B3,1.87e+06 M⁻¹ s⁻¹
4,B4,1.24e+06 M⁻¹ s⁻¹
5,B5,1.24e+06 M⁻¹ s⁻¹
6,B6,1.35e+06 M⁻¹ s⁻¹
7,B7,1.15e+06 M⁻¹ s⁻¹
8,B8,1.52e+06 M⁻¹ s⁻¹
9,B9,2.01e+06 M⁻¹ s⁻¹
10,B10,872000 M⁻¹ s⁻¹
11,B11,1.2e+06 M⁻¹ s⁻¹
12,B12,522000 M⁻¹ s⁻¹
13,B13,1.39e+06 M⁻¹ s⁻¹

# Same assay, conditions: immobilized human ErbB3; dissociation phase about 1200 seconds
row,Molecule,kd (dissociation constant)
1,B1,3.94e-07 s⁻¹
2,B2,<1e-07 s⁻¹
3,B3,2.3e-07 s⁻¹
4,B4,1.56e-05 s⁻¹
5,B5,3.08e-05 s⁻¹
6,B6,6.63e-06 s⁻¹
7,B7,1.09e-05 s⁻¹
8,B8,3.29e-05 s⁻¹
9,B9,1.23e-05 s⁻¹
10,B10,<1e-07 s⁻¹
11,B11,4.17e-06 s⁻¹
12,B12,1.43e-07 s⁻¹
13,B13,1.74e-05 s⁻¹

# Tested on: FaDu head and neck cancer, pancreatic cancer, or lung cancer
# Experiment: Tumor growth inhibition, FaDu head and neck, pancreatic or lung cancer animal model
# Type: in vivo
# Conditions: not given
# Method: The antibody 442S1 was administered into FaDu head and neck cancer, pancreatic cancer, or lung cancer animal model, and the antibodies 442P or 472P antibodies were administered into gastric cancer animal model, in the same manner as described in Examples 3.1 to 3.3.
row,Molecule,tumor volume relative to negative control group
1,B1,tumor volume was reduced

# Tested on: ZR-75-30 cells
# Experiment: Paclitaxel resistance, caspase 3/7 activity in ZR-75-30 breast cancer cells with HRG
# Type: cell-based
# Conditions: 100 ng/mL HRG, 10 nM Paclitaxel, 25 μg/mL 442S1, about 72 hours; FIG. 10
# Method: About 1×10^4 ZR-75-30 cells (American Type Culture Collection) were inoculated onto a plate and incubated in RPMI 1640 medium (Invitrogen) including 10% (v/v) FBS at 37° C. under 5% CO2 conditions for about 24 hours. The medium was then exchanged with fresh medium (100 ng/mL HRG added) including 0.1% (v/v) FBS, and further incubation was performed at 37° C. under 5% CO2 conditions for about 24 hours. 10 nM of Paclitaxel (Bristol-Myers Squibb) and 25 μg/mL of antibody 442S1 were added to the cultured cells and incubated at 37° C. under 5% CO2 conditions for about 72 hours. The cultured cells were collected, and the activity of caspase 3/7 as an apoptotic marker was measured using a Caspase 3/7 Substrate Assay (Promega).
row,Molecule,activity of caspase 3/7
1,CC(=O)O[C@H]1C(=O)[C@@]2(C)[C@H]([C@H](OC(=O)c3ccccc3)[C@]3(O)C[C@H](OC(=O)[C@H](O)[C@@H](NC(=O)c4ccccc4)c4ccccc4)C(C)=C1C3(C)C)[C@]1(OC(C)=O)CO[C@@H]1C[C@@H]2O [Paclitaxel],reduced

# Tested on: FaDu human head and neck cancer cells
# Experiment: Cetuximab resistant FaDu xenograft model
# Type: in vivo, NOD SCID mice
# Conditions: after Cetuximab failure; 10 mg/kg 442S1, 5 mg/kg Cetuximab, twice a week, 2 weeks; FIG. 12
# Method: FaDu human head and neck cancer cells (Shanghai Institutes of Biological Sciences) were incubated in EMEM medium (Hyclone) including 10% FBS (Invitrogen), 0.01 mM NEAA (Non-Essential Amino Acid, Hyclone), and 2 mM L-glutamine (Invitrogen). About 5×10^6 FaDu cancer cells were suspended in 100 μl of PBS and then subcutaneously injected into the frank region of the female NOD SCID mice (HFK Bio-Technology Co., Ltd.). Weights of the mice were measured twice a week, and tumor volume was calculated using the equation of “0.5 a×b^2”, where a and b were the long and short diameters of the tumor, respectively. When the tumor volume reached about 165 mm^3 after 8 days from the inoculation of the cancer cells, the mice were randomly selected. […] Tumor volumes were measured twice a week.
row,Molecule,tumor suppression effect compared with Cetuximab alone
1,B1,significant tumor suppression effect

# Source: patent US10413607B2, “Antibody specifically binding to ErbB3 and use thereof” (ISU ABXIS CO., LTD., priority 2015, dated 2019)
